Laboratory results taken from patent US20250282866A1 (VIGIL NEUROSCIENCE, published 2025).

T1: human TREM2 (human, UniProt Q9NZC2 19-174, limits assumed)
T1 construct: also called triggering receptor expressed on myeloid cells 2
T1 sequence: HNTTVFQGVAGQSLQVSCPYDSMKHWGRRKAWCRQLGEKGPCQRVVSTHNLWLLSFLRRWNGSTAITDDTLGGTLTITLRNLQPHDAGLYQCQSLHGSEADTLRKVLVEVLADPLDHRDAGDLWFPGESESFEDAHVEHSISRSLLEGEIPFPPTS


Experiments:
human TREM2 [1] = target: T1, human TREM2; assay: 2nd screen 10 nM
human TREM2 [2] = target: T1, human TREM2; assay: 2nd screen 2 nM
human TREM2 [3] = target: T1, human TREM2; assay: 1st screen (110 nM or 10 nM)

Row | Binding Signal (fold over 6E7 Parental antibody) (human TREM2 [1]) [fold] | Binding Signal (fold over 6E7 Parental antibody) (human TREM2 [2]) [fold] | Binding Signal (fold over 6E7 Parental antibody) (human TREM2 [3]) [fold] | Binder
1 | 5.22 | 3.63 | 5.08 | V61 (antibody, V domains shown) VH: EVQLVQSGAEVKKPGESLKISCKGSGYSFSSYWIAWVRQMPGKGLEWMGIIYPGDSDTRYNPSFQGQVTISADKSISTAYLQWSSLKASDTAMYFCARGRTFYYDSSDYFDYWGQGTLVTVSS VL: DIQMTQSPSSVSASVGDRVTITCRASQGISSWLAWYQQKPGKAPKLLIYAASSLVNGVPSRFSGSGSGTDFTLTISSLQPEDFATYFCQQADSLPRTFGQGTKLEIK
2 | 3.71 | 4.91 | 3.76 | V63 (antibody, V domains shown) VH: EVQLVQSGAEVKKPGESLKISCKGSGYSFRSYWIAWVRQMPGKGLEWMGIIYPGDSDTRYSPSFQGQVTISADKSISTAYLQWSSLKASDTAMYFCARSRTFYYDSSDYFDYWGQGTLVTVSS VL: DIQMTQSPSSVSASVGDRVTITCRASQGISSWLAWYQQKPGKAPKLLIYAASSLQRGVPSRFSGSGSGTDFTLTISSLQPEDFATYFCQQADRFPRTFGQGTKLEIK
3 | 3.93 | 4.86 | 3.84 | V87 (antibody, V domains shown) VH: EVQLVQSGAEVKKPGESLKISCKGSGYSFRSYWIAWVRQMPGKGLEWMGIIYPGDSDVRYSPDFQGQVTISADKSISTAYLQWSSLKASDTAMYFCARSRTFYYDSSDYFDYWGQGTLVTVSS VL: DIQMTQSPSSVSASVGDRVTITCRASQGISSWLAWYQQKPGKAPKLLIYAASSLQWGVPSRFSGSGSGTDFTLTISSLQPEDFATYFCQQADSFPRTFGQGTKLEIK
4 | 5.48 | 4.88 | 5.41 | V64 (antibody, V domains shown) VH: EVQLVQSGAEVKKPGESLKISCKGSGYSFQSYWIAWVRQMPGKGLEWMGIIYPGDSDTRYSPSFQGQVTISADKSISTAYLQWSSLKASDTAMYFCARGRTFYYDSSDYFDYWGQGTLVTVSS VL: DIQMTQSPSSVSASVGDRVTITCRASQGISSWLAWYQQKPGKAPKLLIYAASSLANGVPSRFSGSGSGTDFTLTISSLQPEDFATYFCQQADSYPRTFGQGTKLEIK
5 | 5.37 | 5.41 | 5.41 | V85 (antibody, V domains shown) VH: EVQLVQSGAEVKKPGESLKISCKGSGYSFRSYWIAWVRQMPGKGLEWMGTIYPGDSDTRYSPSFQGQVTISADKSISTAYLQWSSLKASDTAMYFCARSRTFYYDSSDYFDYWGQGTLVTVSS VL: DIQMTQSPSSVSASVGDRVTITCRASQGISSWLAWYQQKPGKAPKLLIYAASSRQNGVPSRFSGSGSGTDFTLTISSLQPEDFATYFCQQADSFPRTFGQGTKLEIK
6 | 4.01 | 2.54 | 3.94 | V74 (antibody, V domains shown) VH: EVQLVQSGAEVKKPGESLKISCKGSGYSFASYWIAWVRQMPGKGLEWMGIIYPGDSDVRYSPSFQGQVTISADKSISTAYLQWSSLKASDTAMYFCARGRTFYYDSSDYFDYWGQGTLVTVSS VL: DIQMTQSPSSVSASVGDRVTITCRASQGISSWLAWYQQKPGKAPKLLIYAASSLQLGVPSRFSGSGSGTDFTLTISSLQPEDFATYFCQQADSFPRTFGQGTKLEIK
7 | 4.01 | 2.5 | 3.64 | V72 (antibody, V domains shown) VH: EVQLVQSGAEVKKPGESLKISCKGSGYSFTSYWIGWVRQMPGKGLEWMGIIYPGDSDTRYSPSFQGQVTISADKSISTAYLQWSSLKASDTAMYFCARGRTFYYDSSDYFDYWGQGTLVTVSS VL: DIQMTQSPSSVSASVGDRVTITCRASQGISSWLAWYQQKPGKAPKLLIYAASSLVNGVPSRFSGSGSGTDFTLTISSLQPEDFATYFCQQADSYPRTFGQGTKLEIK
8 | 4.52 | 3.74 | 4.64 | V75 (antibody, V domains shown) VH: EVQLVQSGAEVKKPGESLKISCKGSGYSFTSYWIAWVRQMPGKGLEWMGIIYPGDSDTRYSPSFQGQVTISADKSISTAYLQWSSLKASDTAMYFCARGRTFYYDSSDYFDYWGQGTLVTVSS VL: DIQMTQSPSSVSASVGDRVTITCRASQGISSWLAWYQQKPGKAPKLLIYAASSLQAGVPSRFSGSGSGTDFTLTISSLQPEDFATYFCQQADSYPRTFGQGTKLEIK
9 | 5.3 | 5.57 | 4.92 | V88 (antibody, V domains shown) VH: EVQLVQSGAEVKKPGESLKISCKGSGYSFGSYWIAWVRQMPGKGLEWMGIIYPGDSDTRYSPSFQGQVTISADKSISTAYLQWSSLKASDTAMYFCARQRTFYYDSSDYFDYWGQGTLVTVSS VL: DIQMTQSPSSVSASVGDRVTITCRASQGISSWLAWYQQKPGKAPKLLIYAASRLQRGVPSRFSGSGSGTDFTLTISSLQPEDFATYFCQQADSSPRTFGQGTKLEIK
10 | 5.02 | 5.17 | 4.8 | V86 (antibody, V domains shown) VH: EVQLVQSGAEVKKPGESLKISCKGSGYSFGSYWLAWVRQMPGKGLEWMGIIYPGDSDTRYSPSFEGQVTISADKSISTAYLQWSSLKASDTAMYFCARSRTFYYDSSDYFDYWGQGTLVTVSS VL: DIQMTQSPSSVSASVGDRVTITCRASQGISSWLAWYQQKPGKAPKLLIYAASSRQNGVPSRFSGSGSGTDFTLTISSLQPEDFATYFCQQADSFPRTFGQGTKLEIK
11 | 2.75 | 1.29 | 2.05 | V65 (antibody, V domains shown) VH: EVQLVQSGAEVKKPGESLKISCKGSGYSFTSYWIAWVRQMPGKGLEWMGIIYPGDSDTRYSPSFQGQVTISADKSISTAYLQWSSLKASDTAMYFCARSRTFYYDSSDYFDYWGQGTLVTVSS VL: DIQMTQSPSSVSASVGDRVTITCRASQGISSWLAWYQQKPGKAPKLLIYAASSLQNGVPSRFSGSGSGTDFTLTISSLQPEDFATYFCQQADSFPRTFGQGTKLEIK
12 | 2.89 | 1.87 | 2.49 | V62 (antibody, V domains shown) VH: EVQLVQSGAEVKKPGESLKISCKGSGYSFGSYWIAWVRQMPGKGLEWMGIIYPGDSDTRYAPSFQGQVTISADKSISTAYLQWSSLKASDTAMYFCARQRTFYYDSSGYFDYWGQGTLVTVSS VL: DIQMTQSPSSVSASVGDRVTITCRASQGISSWLAWYQQKPGKAPKLLIYAASSLQRGVPSRFSGSGSGTDFTLTISSLQPEDFATYFCGQADSFPRTFGQGTKLEIK
13 | 5.44 | 4.17 | 5.12 | V73 (antibody, V domains shown) VH: EVQLVQSGAEVKKPGESLKISCKGSGYSFGSYWIAWVRQMPGKGLEWMGIIYPGDSDTRYSPGFQGQVTISADKSISTAYLQWSSLKASDTAMYFCARGRTFYYDSSDYFDYWGQGTLVTVSS VL: DIQMTQSPSSVSASVGDRVTITCRASQGISSWLAWYQQKPGKAPKLLIYAASSRQNGVPSRFSGSGSGTDFTLTISSLQPEDFATYFCQQADSYPRTFGQGTKLEIK
14 | 1.46 | 0.94 | 1.33 | V89 (antibody, V domains shown) VH: EVQLVQSGAEVKKPGESLKISCKGSGYSFTSYWIAWVRQMPGKGLEWMGIIYPGDSDTRYSPSFQGQVTISADKSISTAYLQWSSLKASDTAMYFCARQRTFYYDSSDYFDYWGQGTLVTVSS VL: DIQMTQSPSSVSASVGDRVTITCRASQGISSWLAWYQQKPGKAPKLLIYAASSLQNGVPSRFSGSGSGTDFTLTISSLQPEDFATYFCQQADSHPRTFGQGTKLEIK
15 | 4.93 | 4.34 | 4.57 | V76 (antibody, V domains shown) VH: EVQLVQSGAEVKKPGESLKISCKGSGYSFGSYWIAWVRQMPGKGLEWMGIIYPGDSDTRYSPEFQGQVTISADKSISTAYLQWSSLKASDTAMYFCARQRTFYYDSSDYSDYWGQGTLVTVSS VL: DIQMTQSPSSVSASVGDRVTITCRASQGISSWLAWYQQKPGKAPKLLIYAASSLQKGVPSRFSGSGSGRDFTLTISSLQPEDFATYFCQQADSFPRTFGQGTKLEIK
16 | 1.62 | 1.45 | 1.44 | V84 (antibody, V domains shown) VH: EVQLVQSGAEVKKPGESLKISCKGSGYGFTSYWIAWVRQMPGKGLEWMGIIYPGDSDTRYSPSFQGQVTISADKSISTAYLQWSSLKASDTAMYFCARQRTFYYDSSDYSDYWGQGTLVTVSS VL: DIQMTQSPSSVSASVGDRVTITCRASQGISSWLAWYQQKPGKAPKLLIYGASSLQNGVPSRFSGSGSGTDFTLTISSLQPEDFATYFCQQADSFPRTFGQGTKLEIK
17 | 1.38 | 0.83 | 1.43 | V77 (antibody, V domains shown) VH: EVQLVQSGAEVKKPGESLKISCKGSGYSFTSYWIAWVRQMPGKGLEWMGIIYPGDSDTRYSPSFQGQVTISADKSISTAYLQWSSLKASDTAMYFCARQRTFYYDSSDYFDYWGQGTLVTVSS VL: DIQMTQSPSSVSASVGDRVTITCRASQGISSWLAWYQQKPGKAPKLLIYAASSRQNGVPSRFSGSGSGTDFTLTISSLQPEDFATYFCQQADSFPRTFGQGTKLEIK
